Measured values published in publication PMC4888889, “Role of VicRKX and GlnR in pH-Dependent Regulation of the Streptococcus salivarius 57.I Urease Operon”.

Target: MalE (MBP) (UniProt P0AEX9 27-396)
Assay: EMSA; EMSA: 50 mM Tris-HCl pH 7.4, 50 mM KCl, 2 mM MgCl2, 100 ng poly(dI-dC), 0.5 ug BSA, 0.01 pmol probe, 4 C 30 min; DAPA: 10 mM Tris-HCl pH 7.6, 60 mM KCl, 5% glyc

B1: VicR box probe (dsDNA)
DNA 1: CTAATATGTAAATGTTGCAAAATTTCTGAA
DNA 2: TTCAGAAATTTTGCAACATTTACATATTAG
**Q.** Does B1 bind?
**A.** Result: no binding
